Holding throughout (conditions): both partners purified
Assay [1] concerns the target T1, full-length His6-Ups1 R25E (S. cerevisiae, UniProt Q05776 1-175, R25E).
T1 construct: Ups1, Saccharomyces cerevisiae, full length (175 amino acids); source: E. coli SHuffle T7, coexpressed with Mdm35, purified (Ni-NTA, Superdex 200)
T1 sequence (looked up): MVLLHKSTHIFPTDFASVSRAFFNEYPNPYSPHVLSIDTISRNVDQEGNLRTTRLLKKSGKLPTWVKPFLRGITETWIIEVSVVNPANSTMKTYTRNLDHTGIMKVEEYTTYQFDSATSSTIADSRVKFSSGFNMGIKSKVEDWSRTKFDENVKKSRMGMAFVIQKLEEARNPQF
Put plainly: SEC; 10 μM full-length Ups1–Mdm35 complex (WT or mutant Ups1) after incubation with NBD-PA donor liposomes and centrifugation; supernatant on Superdex 200 10/300 GL; 20 mM Tris-HCl pH 7.5, 150 mM NaCl; absorbance at 280 and 460 nm.

Assay [2] concerns the target T2, full-length His6-Ups1 R25K (S. cerevisiae, UniProt Q05776 1-175, R25K).
T2 construct: Ups1, Saccharomyces cerevisiae, full length (175 amino acids); source: E. coli SHuffle T7, coexpressed with Mdm35, purified (Ni-NTA, Superdex 200)
T2 sequence (looked up): T1 sequence (looked up) with E25K
The assay is described as above.

In assay [3] the target is T3, full-length His6-Ups1 ΔLid (lacking the Ω1 loop, residues 62–71) (S. cerevisiae, UniProt Q05776 1-175, ΔLid (lacking residues 62–71)).
T3 construct: Ups1, Saccharomyces cerevisiae, full length (175 amino acids) less residues 62-71; source: E. coli SHuffle T7, coexpressed with Mdm35, purified (Ni-NTA, Superdex 200)
T3 sequence (looked up): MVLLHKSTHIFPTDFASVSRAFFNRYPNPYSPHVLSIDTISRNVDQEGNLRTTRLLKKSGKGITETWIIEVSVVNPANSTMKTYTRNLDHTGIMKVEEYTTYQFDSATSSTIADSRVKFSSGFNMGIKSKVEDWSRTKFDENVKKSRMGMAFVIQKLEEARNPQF
The assay is described as above.

Assay [4] addresses T4, full-length His6-Ups1 K61E/K155E (S. cerevisiae, UniProt Q05776 1-175, K61E | K155E).
T4 construct: Ups1, Saccharomyces cerevisiae, full length (175 amino acids); source: E. coli SHuffle T7, coexpressed with Mdm35, purified (Ni-NTA, Superdex 200)
T4 sequence (looked up): T1 sequence (looked up) with E25R, K61E, K155E
The description is as above.

Assay [5] has as its target T5, full-length Ups1, N-terminally His6 tagged (from the His6–Ups1–Mdm35 complex) (S. cerevisiae, UniProt Q05776 1-175).
T5 construct: Ups1, Saccharomyces cerevisiae, full length (175 amino acids); Added to the assays as the purified complex with Mdm35; also called WT Ups1; Ups1WT; source: E. coli SHuffle T7, coexpressed with Mdm35, purified (Ni-NTA, Superdex 200); not shown: His6, N-terminal, kept
T5 sequence (looked up): T1 sequence (looked up) with E25R
The description is as above.

In assay [6] the target is T6, full-length His6-Ups1 K6E/K128E (S. cerevisiae, UniProt Q05776 1-175, K6E | K128E).
T6 construct: Ups1, Saccharomyces cerevisiae, full length (175 amino acids); source: E. coli SHuffle T7, coexpressed with Mdm35, purified (Ni-NTA, Superdex 200)
T6 sequence (looked up): T1 sequence (looked up) with K6E, E25R, K128E
Described as above.

Assay [7] deals with T7, full-length His6-Ups1 N24C (S. cerevisiae, UniProt Q05776 1-175, N24C).
T7 construct: Ups1, Saccharomyces cerevisiae, full length (175 amino acids); In the pull-down with GST-Mdm35: the chain set free from Mdm35N25C by pretreatment with DTT; source: E. coli SHuffle T7, coexpressed with Mdm35N25C, purified (Ni-NTA, Superdex 200); not shown: His6, N-terminal, kept
T7 sequence (looked up): T1 sequence (looked up) with N24C, E25R
Put plainly: cross-linking; disulfide bond between Ups1N24C and Mdm35N25C on separate chains; SDS–PAGE with or without β-mercaptoethanol, CBB staining.

Assay [8] has as its target T8, Ups1ΔC5 (Ups1 lacking the C-terminal five residues), N-terminally His6 tagged (S. cerevisiae, UniProt Q05776 1-170).
T8 construct: Ups1, Saccharomyces cerevisiae; full length is 175 amino acids, this construct lacks the C-terminal five residues; No removal of the His6 tag is described; the complex with PA was purified again on Ni-NTA before crystallisation; also called His6-Ups1ΔC5; source: E. coli SHuffle T7, coexpressed with Mdm35ΔC5, purified (Ni-NTA, Superdex 200); not shown: His6, N-terminal, kept
T8 sequence (looked up): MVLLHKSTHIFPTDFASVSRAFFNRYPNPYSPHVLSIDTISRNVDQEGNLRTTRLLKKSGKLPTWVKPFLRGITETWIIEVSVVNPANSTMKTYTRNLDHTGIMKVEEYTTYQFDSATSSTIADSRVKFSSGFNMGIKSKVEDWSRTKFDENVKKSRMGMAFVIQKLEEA
Put plainly: crystal structure; Ups1ΔC5–Mdm35ΔC5 complex without PA, 1.40 Å; sitting drop at 20 °C, 0.2 M ammonium citrate tribasic pH 7.0, 20% polyethylene glycol 3,350.

The source of these data is publication PMC4532887, “Structural and mechanistic insights into phospholipid transfer by Ups1–Mdm35 in mitochondria” (Nature Communications, 2015).

Changes are numbered by the printed parent chain.

B1: full-length Mdm35 (from the His6–Ups1–Mdm35 complex) (natural protein, S. cerevisiae, UniProt O60200 1-86, looked up)
chain: MGNIMSASFAPECTDLKTKYDSCFNEWYSEKFLKGKSVENECSKQWYAYTTCVNAALVKQGIKPALDEAREEAPFENGGKLKEVDK
notes: Mdm35, Saccharomyces cerevisiae, full length (86 residues); The coexpression plasmid encodes GST-Mdm35; also called Mdm35WT; source: E. coli SHuffle T7, coexpressed with His6-Ups1, purified (Ni-NTA, Superdex 200)
As to B1, the binding result in assay [1], in assay [2], in assay [3], in assay [4], in assay [5] and in assay [6] was “binds” throughout.

B2: full-length Mdm35 N25C (natural protein, S. cerevisiae, UniProt O60200 1-86, looked up)
chain: B1 chain with N25C
notes: Mdm35, Saccharomyces cerevisiae, full length (86 residues); The coexpression plasmid encodes GST-Mdm35; removal of GST is not described; source: E. coli SHuffle T7, coexpressed with His6-Ups1N24C, purified (Ni-NTA, Superdex 200)
With B2, the binding result in assay [7] is reported as “binds”.

B3: Mdm35ΔC5 (Mdm35 lacking the C-terminal five residues) (domain or fragment, S. cerevisiae, UniProt O60200 1-81, looked up)
chain: MGNIMSASFAPECTDLKTKYDSCFNEWYSEKFLKGKSVENECSKQWYAYTTCVNAALVKQGIKPALDEAREEAPFENGGKL
notes: Mdm35, Saccharomyces cerevisiae; full length is 86 residues, this construct lacks the C-terminal five residues; The coexpression plasmid encodes GST-Mdm35ΔC5; the stated 31 kDa of the heterodimer implies that GST was no longer on the chain, but its removal from the complex is not described; For Mdm35 crystallised alone (4YTV) GST was cleaved with PreScission protease; Disulfides Cys13–Cys52 and …
As to B3, in assay [8], the binding result is on record as “binds”.
